The target in assay [1] is humanized development candidate monoclonal antibody IgG4 (hIgG4). Briefly: Gyrolab, capture reagent, hIgG4 8 ng/ml.
The target is the same in assay [2]. The experiment in a line: Gyrolab, capture reagent, hIgG4 40 ng/ml.
For assay [3] the target is unchanged. Briefly: Gyrolab, capture reagent, hIgG4 1.6 ng/ml.
For assay [4] the target is unchanged. Briefly: Gyrolab, capture reagent, hIgG4 200 ng/ml.
The target is the same in assay [5]. The experiment in a line: Gyrolab, capture reagent, hIgG4 0.32 ng/ml.
Assay [6] has the same target. The experiment in a line: Gyrolab, capture reagent, hIgG4 1000 ng/ml.
The target is the same in assay [7]. Briefly: Gyrolab, capture reagent, hIgG4 5000 ng/ml.
Assay [8] has the same target. The experiment in a line: Gyrolab, capture reagent, hIgG4 8 ng/ml, against the blank.
The target is the same in assay [9]. The experiment in a line: Gyrolab, capture reagent, hIgG4 40 ng/ml, against the blank.
Assay [10] has the same target. Briefly: Gyrolab, capture reagent, hIgG4 1.6 ng/ml, against the blank.
Assay [11] shares this target. The experiment in a line: Gyrolab, capture reagent, hIgG4 200 ng/ml, against the blank.
For assay [12] the target is unchanged. Briefly: Gyrolab, capture reagent, hIgG4 0.32 ng/ml, against the blank.
The target is the same in assay [13]. The experiment in a line: Gyrolab, capture reagent, hIgG4 1000 ng/ml, against the blank.
Assay [14] shares this target. Briefly: Gyrolab, capture reagent, hIgG4 5000 ng/ml, against the blank.
Assay [15] has as its target drug: a monoclonal antibody of human IgG4 isotype (PandA assay). The experiment in a line: PandA assay, mAb 1 ug/ml in monkey plasma.
The target is the same in assay [16]. Briefly: PandA assay, mAb 0.5 ug/ml in monkey plasma.
For assay [17] the target is unchanged. Briefly: PandA assay, mAb 0.75 ug/ml in monkey plasma.
The target is the same in assay [18]. The experiment in a line: PandA assay, signal to noise against the negative control.
The target is the same in assay [19]. The experiment in a line: PandA assay (PEG precipitation, acid dissociation, MSD plate, sulfo-TAG-drug), mAb 5 ug/ml in monkey plasma.
Assay [20] addresses humanized development candidate monoclonal antibody IgG4 (hIgG4). Briefly: Gyrolab, mAb as capture, hIgG4 8 ng/ml.
For assay [21] the target is unchanged. The experiment in a line: Gyrolab, mAb as capture, hIgG4 40 ng/ml.
Assay [22] shares this target. Briefly: Gyrolab, mAb as capture, hIgG4 1.6 ng/ml.
The target is the same in assay [23]. The experiment in a line: Gyrolab, mAb as capture, hIgG4 200 ng/ml.
Assay [24] shares this target. The experiment in a line: Gyrolab, mAb as capture, hIgG4 0.32 ng/ml.
The target is the same in assay [25]. The experiment in a line: Gyrolab, mAb as capture, hIgG4 1000 ng/ml.
Assay [26] has the same target. Briefly: Gyrolab, mAb as capture, hIgG4 5000 ng/ml.
For assay [27] the target is unchanged. The experiment in a line: SPR (Biacore T200), under the same conditions as the rabbit clones, antigen 80-0 nM, 1:1 fit. On the technique in general: In SPR one partner is held on a chip, and binding of the other changes the refractive index at the surface.
The target in assay [28] is humanized therapeutic monoclonal antibody IgG1 (hIgG1). The assay is described as above.

Regarding “Gyrolab generic PK assay capture reagent”, the Av. Resp. in assay [1] was 9.3; in [2], 26.1; in [3], 5.3; in assay [4], 94.1; in assay [5], 4.6; in assay [6] it was 267. The substance also gave an Av. Resp. in [7] of 468. Besides, the S/B in assay [8] is 2.1; in assay [9] it was 5.7; in assay [10] it was 1.2; in assay [11], 20.8; in assay [12], 1; in assay [13], 59. This substance also returned a S/B in assay [14] of 103.
For “mouse anti-Fc monoclonal antibody clone JDC-10 (Southern Biotech, Cat. No. 9040-01)”, the ECL Signal in [15] was 182; in assay [16], 130; in assay [17] it was 148; in assay [19], 756. Further, the S/N in [18] amounted to 1.37.
For orientation: Kd means the equilibrium constant for the complex coming apart. Take “mouse anti-human IgG monoclonal antibody MCA5748G (Bio-Rad)”: the Av. Resp. in [20] is 18.4; in [21], 33.8; in [22], 14.2; in assay [23] it was 86.7; in [24] it was 13.6; in [25], 214. In assay [26], this substance displayed an Av. Resp. of 283. Also, the Kd in assay [27] was 1.57 nM; in assay [28] it was 1.82 nM.

(Values after patent US20250237662A1.)
